Source: US20230357420A1 (VILLARIS THERAPEUTICS, published 2023)
Read-outs that look alike come from different tables or passages of the source.

Key:
[1] = biological target: T1, Rhesus CD122 (rhesus monkey, UniProt Q38J85 27-551 (cynomolgus entry)); assay: flow cytometry (FACS) on rhIL15Rβ-transfected CHO-K1 cells, anti-human IgG-FITC, GeoMFI
T1 construct: also called rhCD122 on cells
T1 sequence: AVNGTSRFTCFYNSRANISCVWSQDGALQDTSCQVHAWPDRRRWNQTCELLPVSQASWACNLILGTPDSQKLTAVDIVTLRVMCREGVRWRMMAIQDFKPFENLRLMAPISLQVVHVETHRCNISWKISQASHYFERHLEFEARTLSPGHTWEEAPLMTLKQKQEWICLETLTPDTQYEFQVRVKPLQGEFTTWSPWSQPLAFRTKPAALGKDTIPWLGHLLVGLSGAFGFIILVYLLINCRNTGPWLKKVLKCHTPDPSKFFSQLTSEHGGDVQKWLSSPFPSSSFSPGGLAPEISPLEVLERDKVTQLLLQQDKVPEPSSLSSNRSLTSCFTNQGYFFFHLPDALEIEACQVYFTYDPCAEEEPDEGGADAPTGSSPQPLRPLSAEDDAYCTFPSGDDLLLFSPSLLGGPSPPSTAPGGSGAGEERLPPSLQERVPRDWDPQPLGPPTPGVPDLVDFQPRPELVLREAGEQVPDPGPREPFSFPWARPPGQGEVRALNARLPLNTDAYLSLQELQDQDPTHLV
Experimental: (§1) Purified IgGs were tested in FACs for binding to human and rhesus CD122 expressed on CHO-K1 stable cell lines and CHO-K1 wild-type cells. The IgG samples were titrated in three-fold serial dilutions starting at 500 nM to […]. Binding of IgGs was detected with a mouse anti-human IgG conjugated to FITC. Results were analyzed by examining the Mean Fluorescence Intensity (MFI) of 10000 cells per sample in the BL-1 channel detector of a flow cytometer (AttuneTM NxT Acoustic Focusing Cytometer, Invitrogen/ ThermoFisher Scientific).

[2] = biological target: T2, CD20 (human, UniProt P11836 1-297); assay: Retrogenix cell microarray: fixed HEK293 cells reverse-transfected with the target, AF647 anti-human IgG detection
T2 construct: whole, on cells; Control target; also called MS4A1
T2 sequence (looked up): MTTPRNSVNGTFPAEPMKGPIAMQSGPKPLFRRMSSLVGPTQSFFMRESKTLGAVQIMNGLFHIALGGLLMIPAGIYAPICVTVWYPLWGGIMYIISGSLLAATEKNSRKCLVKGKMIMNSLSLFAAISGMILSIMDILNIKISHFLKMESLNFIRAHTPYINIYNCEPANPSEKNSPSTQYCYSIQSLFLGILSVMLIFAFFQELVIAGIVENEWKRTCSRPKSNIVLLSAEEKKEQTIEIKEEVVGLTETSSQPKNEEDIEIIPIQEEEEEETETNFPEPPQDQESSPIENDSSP
Experimental: (§2) Slides were analyzed as above.
(§3) The plasmid samples for control and potential target receptors were then re-arrayed onto new chips for repeat analyses in duplicate. […] Control experiments using the same cells but no primary antibody (FIG. .

[3] = biological target: T3, EGFR (human, UniProt P00533 25-1210); assay: as above
T3 construct: whole, on cells; Control target on the confirmation array
Experimental: as §2, §3

[4] = biological target: T4, Human CD122 (human, UniProt P14784 27-551); assay: flow cytometry (FACS) on huIL15Rβ-transfected CHO-K1 cells, anti-human IgG-FITC, GeoMFI
T4 construct: also called hCD122; IL2RB
T4 sequence: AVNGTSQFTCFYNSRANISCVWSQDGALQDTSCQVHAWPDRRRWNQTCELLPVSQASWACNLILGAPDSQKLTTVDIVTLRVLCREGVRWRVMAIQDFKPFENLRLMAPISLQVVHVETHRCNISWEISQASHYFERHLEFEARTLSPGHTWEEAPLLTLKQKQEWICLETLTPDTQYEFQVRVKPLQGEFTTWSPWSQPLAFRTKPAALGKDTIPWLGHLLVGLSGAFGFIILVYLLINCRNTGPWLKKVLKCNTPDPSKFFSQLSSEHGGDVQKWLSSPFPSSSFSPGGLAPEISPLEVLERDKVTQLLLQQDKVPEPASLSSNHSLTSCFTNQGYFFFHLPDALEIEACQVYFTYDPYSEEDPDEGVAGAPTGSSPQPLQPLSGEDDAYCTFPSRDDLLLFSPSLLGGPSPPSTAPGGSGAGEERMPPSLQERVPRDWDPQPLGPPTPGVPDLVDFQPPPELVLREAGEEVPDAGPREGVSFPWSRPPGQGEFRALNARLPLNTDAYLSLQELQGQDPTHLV
Experimental: as §1

[5] = biological target: T4, Human CD122; assay: cell-based or functional assay
[6] = biological target: T4, Human CD122; assay: flow cytometry (FACS) on huIL15Rβ-transfected CHO-K1 cells, anti-human IgG-FITC, GeoMFI; remark: listed apart in the source
Experimental: as §1

[7] = biological target: T1, Rhesus CD122; assay: flow cytometry (FACS) on rhIL15Rβ-transfected CHO-K1 cells, anti-human IgG-FITC, GeoMFI; remark: listed apart in the source
Experimental: as §1

[8] = biological target: T1, Rhesus CD122; assay: as above; remark: listed apart in the source
Experimental: as §1

[9] = biological target: T4, Human CD122; assay: flow cytometry (FACS) on huIL15Rβ-transfected CHO-K1 cells, anti-human IgG-FITC, GeoMFI; remark: listed apart in the source
Experimental: as §1

[10] = biological target: T4, Human CD122; assay: as above; remark: listed apart in the source
Experimental: as §1

[11] = biological target: T4, Human CD122; assay: as above; remark: listed apart in the source
Experimental: as §1

EC50 (read off the curve) [1]: ~0.7 nM | binding result [2]: no binding (tested: 5 µg/ml) | binding result [3]: no binding (tested: 5 µg/ml) | EC50 (read off the curve) [4]: ~0.9 nM | IC50, IL-15-induced M07e cell proliferation [5]: 9.79 mg/L | EC50 (read off the curve) [6]: ~0.9 nM | EC50 (read off the curve) [7]: ~0.6 nM | EC50 (read off the curve) [8]: ~0.6 nM | EC50 (read off the curve) [9]: ~0.9 nM | EC50 (read off the curve) [10]: ~0.9 nM | EC50 (read off the curve) [11]: ~0.9 nM
B1: IgG1-MIKβ1 (humanized) (antibody, V domains shown)
VH: EVQLLESGGGLVQPGGSLRLSCAASGFSVTSYGVHWIRQAPGKGLEWLGVIWSGGSTDYNAAFISRLTISKDNSKNTVYFQMNSLQAEDTAIYYCARAGDYNYDGFAYWGQGTLVTVSS
VL: DIVLTQSPSSLSASVGDRVTITCSGSSSVSFMYWYQQRPGKAPRLLIYDTSNLASGVPSRFSGSGSGTSYTFTISSLQPEDIATYYCQQWSTYPLTFGQGTKVEVK
notes: also called VillMab-1; VillMAB-1
